Measured values: patent US7306904

Target: soluble PDGF-alpha receptor (UniProt P16234)
Test: proximity ligation competition assay in solution: 100 nM PDGF-AA added to 6.4 pM PDGF-BB, 2.5 nM soluble PDGF-alpha receptor and 5 pM aptamer probes; the signal comes from PDGF-BB displaced from the receptor, compared with no PDGF-AA

Chain of UniProt P16234 (P16234 24-524 limits assumed): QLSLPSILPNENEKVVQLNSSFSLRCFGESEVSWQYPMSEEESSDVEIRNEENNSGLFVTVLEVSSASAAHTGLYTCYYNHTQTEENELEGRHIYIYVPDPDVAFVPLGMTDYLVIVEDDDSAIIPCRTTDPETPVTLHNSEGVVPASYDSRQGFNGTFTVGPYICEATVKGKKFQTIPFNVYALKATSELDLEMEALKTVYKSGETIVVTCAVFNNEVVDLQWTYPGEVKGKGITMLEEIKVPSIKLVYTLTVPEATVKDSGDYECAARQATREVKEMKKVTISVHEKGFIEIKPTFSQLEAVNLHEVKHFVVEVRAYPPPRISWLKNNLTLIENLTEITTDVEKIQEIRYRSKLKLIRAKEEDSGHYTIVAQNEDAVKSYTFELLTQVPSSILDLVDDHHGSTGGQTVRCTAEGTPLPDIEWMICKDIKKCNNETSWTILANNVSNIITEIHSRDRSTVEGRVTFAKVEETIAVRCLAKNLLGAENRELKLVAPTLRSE

## PDGF-AA (from UniProt P04085 87-211) (ligand)
  fold increase in signal: 3 fold
